Measured values reported in US20250152729A1 (CANCER RESEARCH TECHNOLOGY, published 2025).
Numbering of substitutions follows the chain as printed. Numbers in names are those of the source.

B1: 5Hg5-5Lg2 human Alya IgG1 (antibody, V domains shown)
VH: EVQLVQSGAEVKKPGESLRISCKGSGYSFTDYWMHWVRQMPGKGLEWMGAIDTSDSYTSYNQKFKGQVTISADKSISTAYLQWSSLKASDTAMYYCARDYGNFYYYAMDYWGQGTLVTVSS
VL: QAVVTQEPSLTVSPGGTVTLTCRSSTGAVTTSNYANWFQQKPGQAPRTLIYGTNNRAPWTPARFSGSLLGGKAALTLLGAQPEDEAEYYCALWYSNHWVFGGGTKLTVL
notes: Humanised 5E3; human IgG1 Alya constant (239iCys, S442C, EU), lambda light chain; purified, unconjugated; also called 5HE5/5Lg2
B2: 5Hg4-5Lg4 human Alya IgG1 (antibody, V domains shown)
VH: QVQLVQSGSELKKPGASVKVSCKASGYTFTDYWMHWVRQAPGQGLEWMGAIDTSDSYTSYNQKFKGRFVFSLDTSVSTAYLQICSLKAEDTAVYYCARDYGNFYYYAMDYWGQGTLVTVSS
VL: QSALTQPPSVSGSPGQSVTISCRSSTGAVTTSNYANWYQQPPGTAPKLMIYGTNNRAPGVPDRFSGSKSGNTASLTISGLQAEDEADYYCALWYSNHWVFGGGTKLTVL
notes: Humanised 5E3; human IgG1 Alya constant (239iCys, S442C, EU), lambda light chain; purified, unconjugated
B3: 5Hg4-5Lg1 human Alya IgG1 (antibody, V domains shown)
VH: B2 VH
VL: B1 VL with L78S
notes: as for B2
B4: 5Hg4-5Lg2 human Alya IgG1 (antibody, V domains shown)
VH: B2 VH
VL: B1 VL
notes: as for B2
B5: 5Hg2-5Lg6 human Alya IgG1 (antibody, V domains shown)
VH: QVQLVQSGAEVKKPGASVKVSCKASGYTFTDYWMHWVRQAPGQRLEWMGAIDTSDSYTSYNQKFKGRVTITRDTSASTAYMELSSLRSEDTAVYYCARDYGNFYYYAMDYWGQGTLVTVSS
VL: SYELTQPSSVSVSPGQTARITCRSSTGAVTTSNYANWFQQKPGQAPVLVIYGTNNRAPGIPERFSGSSSGTTVTLTISGAQVEDEADYYCALWYSNHWVFGGGTKLTVL
notes: as for B2

target: T1, mouse SEMA4A expressed on expi293 cells (UniProt ID Q62178) (mouse, UniProt Q62178 33-760); assay: Mirrorball direct binding, dilution series on expi293 cells transiently transfected with mouse SEMA4A, anti-human Alexa Fluor 647
T1 construct: Transient transfection in expi293 cells
T1 sequence: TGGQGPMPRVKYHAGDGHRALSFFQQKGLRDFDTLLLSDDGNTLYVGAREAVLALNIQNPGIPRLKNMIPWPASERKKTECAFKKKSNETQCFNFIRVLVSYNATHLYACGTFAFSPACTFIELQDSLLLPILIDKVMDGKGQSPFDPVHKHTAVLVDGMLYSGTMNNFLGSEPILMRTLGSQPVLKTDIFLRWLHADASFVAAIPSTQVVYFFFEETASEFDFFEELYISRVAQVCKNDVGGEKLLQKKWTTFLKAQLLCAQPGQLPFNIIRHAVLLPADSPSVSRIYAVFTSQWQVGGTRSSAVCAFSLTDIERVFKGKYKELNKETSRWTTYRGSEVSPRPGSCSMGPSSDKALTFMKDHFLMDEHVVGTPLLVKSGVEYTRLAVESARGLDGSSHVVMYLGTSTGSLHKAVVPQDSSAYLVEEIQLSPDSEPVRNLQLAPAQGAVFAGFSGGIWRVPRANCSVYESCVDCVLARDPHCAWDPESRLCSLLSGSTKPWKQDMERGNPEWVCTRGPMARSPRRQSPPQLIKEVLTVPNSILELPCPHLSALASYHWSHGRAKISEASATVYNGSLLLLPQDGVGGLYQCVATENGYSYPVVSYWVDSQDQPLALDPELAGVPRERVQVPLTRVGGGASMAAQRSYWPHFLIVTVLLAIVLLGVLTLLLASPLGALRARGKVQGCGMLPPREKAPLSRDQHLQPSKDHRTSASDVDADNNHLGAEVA

B1: binds.
B2: binds.
B3: binds.
B4: binds.
B5: binds.

target: T2, human SEMA4A expressed on cells (UniProt ID Q9H3S1, isoform 1) (human, UniProt Q9H3S1 33-761); assay: cell-based or functional assay
T2 sequence: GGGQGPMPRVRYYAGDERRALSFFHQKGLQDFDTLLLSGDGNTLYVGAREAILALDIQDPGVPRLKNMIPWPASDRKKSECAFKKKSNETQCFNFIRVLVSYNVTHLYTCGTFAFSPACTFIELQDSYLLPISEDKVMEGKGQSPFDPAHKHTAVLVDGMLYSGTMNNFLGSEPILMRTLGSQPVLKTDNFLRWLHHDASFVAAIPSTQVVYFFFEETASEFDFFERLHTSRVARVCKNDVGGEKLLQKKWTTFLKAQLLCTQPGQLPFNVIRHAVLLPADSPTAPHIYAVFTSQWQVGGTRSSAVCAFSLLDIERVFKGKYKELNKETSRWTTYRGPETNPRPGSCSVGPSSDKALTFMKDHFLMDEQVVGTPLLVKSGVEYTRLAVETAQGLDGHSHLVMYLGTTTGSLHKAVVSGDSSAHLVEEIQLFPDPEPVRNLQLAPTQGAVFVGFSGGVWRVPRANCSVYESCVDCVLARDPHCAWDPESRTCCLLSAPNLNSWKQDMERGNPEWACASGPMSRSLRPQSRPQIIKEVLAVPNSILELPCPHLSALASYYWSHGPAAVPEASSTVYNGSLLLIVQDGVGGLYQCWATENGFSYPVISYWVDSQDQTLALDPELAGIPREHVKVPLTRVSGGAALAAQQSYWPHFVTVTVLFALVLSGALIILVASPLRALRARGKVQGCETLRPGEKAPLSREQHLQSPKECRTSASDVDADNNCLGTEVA

In order of falling “IC50 (pM), Fab-ZAP cell kill, NCI-H929” value:
1. B1  167 pM
2. B4  151 pM
3. B3  122 pM
4. B2  119 pM
5. B5  42 pM

In order of rising “Max % Cell Kill, Fab-ZAP, NCI-H929” value:
1. B5  22%
2. B2  33%
3. B1  51%
4. B3  56%
5. B4  58%

target: T2, human SEMA4A expressed on cells …; assay: Mirrorball epitope competition on MM.1S cells; competitor: fixed 5E3 mouse IgG1
Text: The 5E3 epitope competition assay assessed the ability of the un-purified IgGs expressed in a human IgG1 backbone to compete for binding to the mouse 5E3 epitope on human SEMA4A endogenously expressed by MM.1S cells, a human multiple myeloma cell line. The assay utilised a secondary-Alexa Fluor 647 conjugate, 5E3 expressed in a mouse IgG1 (A) backbone (BioLegend®, San Diego, CA, 148402) and a Mirrorball fluorescence cytometer (SPT Labtech, UK). Binding of 5E3 mouse IgG1 to MM.1S cells was measured via an anti-mouse secondary labelled with Alexa Fluor 647 (Invitrogen, A21235) in the presence of a single concentration of each un-purified human IgG1. […] 10 μl undiluted un-purified IgG, contained in Expi293 expression medium (Gibco, UK, A1435101), were added to the assay plate (Greiner Bio-one, UK, 781906), followed by 10 ul of 1.2 nM 5E3 mouse IgG1 and 20 μl MM.1S cell suspension containing 1,500 cells that was spiked with 4 nM anti-mouse Alexa Fluor 647. The assay plate was incubated for 4 hours at room temperature, in the dark prior to reading on a Mirrorball fluorescence cytometer (SPT Labtech, UK) using a 640 nm laser for excitation and measuring emission in the FL-4 channel (650-690 nm). Data was analysed as Count x median mean intensity (x FLU). All dilutions were performed in Hanks' balanced salt solution (Sigma, UK; cat: H8264) containing 0.1% (w/V) BSA (Sigma, UK; cat: A9576). Maximum binding signal was determined by analysing the binding of 5E3 mouse IgG1 to MM.1S cells in the absence of competitor un-purified human IgG1. Background binding signal was determined by analysing the fluorescence generated in the absence of 5E3 mouse IgG1. Data were analysed and graphed using GraphPad Prism software (GraphPad Software, Inc, La Jolla, CA).
Hits from the primary screening were re-formatted into the human Alya IgG1 vector and re-expressed and purified as described in section 4.1. 5E3 epitope competition assay methods are described in section 3.2 and were used to test purified human Alya IgG1s. The purified human Alya IgG1s were diluted to a 4× stock and then serially diluted using 4-fold dilutions to generate a 10 point concentration response curve.

In order of rising IC50:
1. B4  8.4 nM
2. B3  9.7 nM
3. B1  14.9 nM
4. B2  45.5 nM
5. B5  71.8 nM
